According to US20230055711A1 (BIOSION, published 2023):
Where two headings read alike, the source gives them in different places.

Key:
[1] = biological target: recombinant human BCMA-his protein (Acro biosystems, Cat #BCA-H522Y) (human) (UniProt Q02223); experiment: BLI Octet RED96, antibody on AHC sensor, BCMA-his in solution
[2] = biological target: recombinant human BCMA-his protein (Acro biosystems, Cat #BCA-H522Y) (human) (UniProt Q02223); experiment: SPR Biacore T200, antibody captured on Protein G chip, BCMA-his flowed
[3] = biological target: recombinant human BCMA-his protein (Acro biosystems, Cat #BCA-H522Y) (human) (UniProt Q02223); experiment: SPR Biacore, antibody captured by anti-human IgG on CM5, BCMA-his flowed
[4] = biological target: recombinant human BCMA-his protein (Acro biosystems, Cat #BCA-H522Y) (human) (UniProt Q02223); experiment: competitive ELISA: coated human BCMA-his, blocked ligand biotin-labeled BAFF-Fc
[5] = biological target: recombinant human BCMA-his protein (Acro biosystems, Cat #BCA-H522Y) (human) (UniProt Q02223); experiment: as above; remark: listed apart in the source
[6] = biological target: recombinant human BCMA-his protein (Acro biosystems, Cat #BCA-H522Y) (human) (UniProt Q02223); experiment: capture ELISA: antibody captured on the plate, biotin-labeled human BCMA-his detected with streptavidin-HRP
[7] = biological target: recombinant human BCMA-his protein (Acro biosystems, Cat #BCA-H522Y) (human) (UniProt Q02223); experiment: as above; remark: listed apart in the source
[8] = biological target: recombinant human BCMA-his protein (Acro biosystems, Cat #BCA-H522Y) (human) (UniProt Q02223); experiment: competitive ELISA: antibody pre-mixed with biotin-labeled human BCMA-his, competitor coated BCMA BM1 (self-competition)
[9] = biological target: recombinant human BCMA-his protein (Acro biosystems, Cat #BCA-H522Y) (human) (UniProt Q02223); experiment: as above; remark: listed apart in the source
[10] = biological target: recombinant human BCMA-his protein (Acro biosystems, Cat #BCA-H522Y) (human) (UniProt Q02223); experiment: SPR Biacore, antibody captured on CM5 chip, BCMA-his flowed
[11] = biological target: T1, human BCMA on U266 cells (human, UniProt Q02223 1-184); experiment: cell based binding FACS on U266 cells, MFI
T1 construct: whole, on cells; Endogenous protein of the cell line; also called human BCMA on the cell surface; U266 cells expressing human BCMA
T1 sequence (looked up): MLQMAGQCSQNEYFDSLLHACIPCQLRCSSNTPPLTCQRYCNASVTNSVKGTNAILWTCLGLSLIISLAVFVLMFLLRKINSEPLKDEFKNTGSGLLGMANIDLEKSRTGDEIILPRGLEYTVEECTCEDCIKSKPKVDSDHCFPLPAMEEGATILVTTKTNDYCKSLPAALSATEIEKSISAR

[12] = biological target: T2, cynomolgus BCMA-his protein (Acro biosystems, Cat #BCA-052H7) (cynomolgus monkey, UniProt A0A2K5UD97 1-53); experiment: indirect ELISA on coated cynomolgus BCMA-his
T2 construct: Bought; also called cynomolgus monkey BCMA protein; not shown: his tag

[13] = biological target: recombinant human BCMA-his protein (Acro biosystems, Cat #BCA-H522Y) (human) (UniProt Q02223); experiment: SPR Biacore T200, antibody captured by anti-mouse IgG on CM5, BCMA-his flowed
[14] = biological target: T3, human BCMA on 293F-BCMA cells (human, UniProt Q02223 1-184); experiment: cell based binding FACS on 293F cells expressing human BCMA, MFI
T3 construct: Stably expressed on 293F cells prepared in house; also called 293F cells expressing human BCMA; Full length human BCMA
T3 sequence: T1 sequence (looked up)

[15] = biological target: recombinant human BCMA-his protein (Acro biosystems, Cat #BCA-H522Y) (human) (UniProt Q02223); experiment: competitive ELISA: antibody pre-mixed with biotin-labeled human BCMA-his, competitor coated BCMA BM1
[16] = biological target: recombinant human BCMA-his protein (Acro biosystems, Cat #BCA-H522Y) (human) (UniProt Q02223); experiment: as above; remark: listed apart in the source

T2 sequence (A0A2K5UD97 entry or part of it): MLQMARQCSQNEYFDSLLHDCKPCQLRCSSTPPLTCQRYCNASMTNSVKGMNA

Molecule: BCMA BM1, full-length antibody containing the BCMA-binding portion of GSK2857916
- Kd [1]: 0.436 nM
- koff [1]: 0.000125 s⁻¹
- kon [1]: 286000 M⁻¹ s⁻¹
- Kd [2]: 0.742 nM
- koff [2]: 0.000245 s⁻¹
- kon [2]: 330000 M⁻¹ s⁻¹
- Kd [3]: 0.578 nM
- koff [3]: 0.000141 s⁻¹
- kon [3]: 244000 M⁻¹ s⁻¹
- IC50 [4]: 10.7 nM
- IC50 [5]: 12.6 nM
- EC50 [6]: 1.11 nM
- EC50 [7]: 0.569 nM
- IC50 [8]: 2.64 nM
- IC50 [9]: 2.89 nM

B1: mouse anti-BCMA monoclonal antibody B1H2 (antibody, V domains shown)
VH: EVQLQQSGPELVKPGASVKMSCKASGYTLTNYVMHWMKQKPGQGLEWIGFIIPFNDGTKYNEHFKGKATLTSDKSSNTAYMVLSSLTSEDSAVYYCARYDFEGYFDVWGAGTTVTVSS
VL: DIQMTQTTSSLSASLGDRVTISCSASQDITNFLNWYQQKPDGTVKLLIYSTSRLHSGVPSRFSGSGSGTDYSLTISNLEPEDIATYYCQQYSNLPWTFGGGTNLEIK
notes: Hybridoma-derived mouse mAb purified on Protein A; also called Mouse B1H2; mouse antibody B1H2
- Kd [10]: 0.0757 nM
- koff [10]: 0.000783 s⁻¹
- kon [10]: 1.03e+07 M⁻¹ s⁻¹
- EC50 [11]: 0.885 nM
- EC50 [12]: 31.4 nM
- Kd [13]: 0.203 nM
- koff [13]: 0.0011 s⁻¹
- kon [13]: 5.42e+06 M⁻¹ s⁻¹
- EC50 [14]: 0.613 nM
- IC50 [4]: 6.09 nM
- IC50 [5]: 8.28 nM
- IC50 [15]: 1.03 nM
- IC50 [16]: 0.282 nM
- EC50 [6]: 0.702 nM
- EC50 [7]: 0.177 nM
